Source: article PMC7568402

System: CC(=O)N[C@H]1[C@H](Oc2ccc([N+](=O)[O-])cc2)O[C@H](CO)[C@@H](O)[C@@H]1O
Assay: p-nitrophenol release, A405, non-linear regression
Type: biochemical, Bifidobacterium longum subsp. infantis
Conditions: pH 5.0, 37 °C, 50 mM Na2HPO4, apparent kinetics

Substance | Km | kcat | kcat/Km
Blon_2355 (Bifidobacterium longum subsp. infantis ATCC 15697 = JCM 1222 = DSM 20088) | 480 ± 20 µM |  | 
Blon_0732 (Bifidobacterium longum subsp. infantis ATCC 15697 = JCM 1222 = DSM 20088) | 1640 ± 850 µM | 104 ± 46.2 s⁻¹ | 65000 ± 543 M⁻¹ s⁻¹
Blon_0459 (Bifidobacterium longum subsp. infantis ATCC 15697 = JCM 1222 = DSM 20088) | 330 ± 40 µM |  | 
